Assay results published in paper PMC9352680, “A comprehensive thermodynamic model for RNA binding by the Saccharomyces cerevisiae Pumilio protein PUF4”.

T1: PUF4 RNA-binding domain (Saccharomyces cerevisiae, UniProt P25339 537-888)
T1 sequence: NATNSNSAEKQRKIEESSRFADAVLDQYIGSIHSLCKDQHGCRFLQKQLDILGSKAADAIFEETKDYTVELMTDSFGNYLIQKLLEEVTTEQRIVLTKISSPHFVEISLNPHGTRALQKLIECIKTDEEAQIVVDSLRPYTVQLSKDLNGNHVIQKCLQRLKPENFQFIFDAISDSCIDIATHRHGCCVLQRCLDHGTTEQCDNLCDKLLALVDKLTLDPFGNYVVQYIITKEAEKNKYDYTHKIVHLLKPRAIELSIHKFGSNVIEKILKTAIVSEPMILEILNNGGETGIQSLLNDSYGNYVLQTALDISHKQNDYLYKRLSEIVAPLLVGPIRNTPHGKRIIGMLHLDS


Target: T1, PUF4 RNA-binding domain
Test: Mg; RNA-MaP; 20 mM Na-HEPES pH 7.4, 30 mM KOAc, 0.75 mM MgCl2, 0.1% Tween-20, 5% glycerol, 0.1 mg/mL BSA, 2 mM DTT; 25 C; 0.0125-409.6 nM protein
Conditions: tags: N-His6-TEV cleaved; C-SNAP kept, Cy3B-labelled; label: tethered on chip by stalled RNA polymerase

Row | Binder | Kd
1 | Ic_S2_P5E.1_K5.1_C5.1_H5.1_A5.1_[T6C]_F5.1_[T9G]_[A10C]_T5.1 (ssRNA) RNA: UUUGAUUAAUAUGAUAUCGUUCUUUCUUGUAUCAUGCUUCUUUCUCGAUAUCAUAUUAAUCUUU | 12.1 nM
2 | Ic_S2_P5E.1_K5.1_C5.1_H5.1_A5.1_[T5A]_[A7T]_F5.1_[T9G]_[A10C]_T5.1 (ssRNA) RNA: UUUGAUUAAUAUGAUAUCGUUCUUUCUUGUAAUUUGCUUCUUUCUCGAUAUCAUAUUAAUCUUU | 70.7 nM
3 | Ic_S2_P5E.1_K5.1_C5.1_H5.1_A5.1_[T5G]_[T6C]_F5.1_[T9C]_T5.1 (ssRNA) RNA: UUUGAUUAAUAUGAUAUCGUUCUUUCUUGUAGCAUCAUUCUUUCUCGAUAUCAUAUUAAUCUUU | 87.8 nM
4 | Ic_S2_P5E.1_K5.1_C5.1_H5.1_A5.1_[T5C]_[T6A]_F5.1_[T9C]_[A10T]_T5.1 (ssRNA) RNA: UUUGAUUAAUAUGAUAUCGUUCUUUCUUGUACAAUCUUUCUUUCUCGAUAUCAUAUUAAUCUUU | 7.59 nM
5 | Ic_S2_P5E.1_K5.1_C5.1_H5.1_A5.1_[T5C]_[T6G]_[A7T]_F5.1_[T8G]_[A10T]_T5.1 (ssRNA) RNA: UUUGAUUAAUAUGAUAUCGUUCUUUCUUGUACGUGUUUUCUUUCUCGAUAUCAUAUUAAUCUUU | 22.9 nM
6 | Ic_S2_P5E.1_K5.1_C5.1_H5.1_A5.1_[A7C]_F5.1_[T8G]_[A10T]_T5.1 (ssRNA) RNA: UUUGAUUAAUAUGAUAUCGUUCUUUCUUGUAUUCGUUUUCUUUCUCGAUAUCAUAUUAAUCUUU | 67.8 nM
7 | Ic_S2_P5E.1_K5.1_C5.1_H5.1_A5.1_[T5A]_F5.1_[T8A]_[A10G]_T5.1 (ssRNA) RNA: UUUGAUUAAUAUGAUAUCGUUCUUUCUUGUAAUAAUGUUCUUUCUCGAUAUCAUAUUAAUCUUU | 183 nM
8 | Ic_S2_P5E.1_K5.1_C5.1_H5.1_A5.1_[T5G]_[A7C]_F5.1_[T8A]_[A10G]_T5.1 (ssRNA) RNA: UUUGAUUAAUAUGAUAUCGUUCUUUCUUGUAGUCAUGUUCUUUCUCGAUAUCAUAUUAAUCUUU | 450 nM
9 | Ic_S2_P5E.1_K5.1_C5.1_H5.1_A5.1_[T5C]_[A7T]_F5.1_[T8A]_[T9C]_[A10G]_T5.1 (ssRNA) RNA: UUUGAUUAAUAUGAUAUCGUUCUUUCUUGUACUUACGUUCUUUCUCGAUAUCAUAUUAAUCUUU | 623 nM
10 | Ic_S2_P5E.1_K5.1_C5.1_H5.1_A5.1_[T6G]_[A7T]_F5.1_[T9C]_[A10C]_T5.1 (ssRNA) RNA: UUUGAUUAAUAUGAUAUCGUUCUUUCUUGUAUGUUCCUUCUUUCUCGAUAUCAUAUUAAUCUUU | 11.9 nM
11 | Ic_S2_P5E.1_K5.1_C5.1_H5.1_A5.1_[T5C]_[T6A]_F5.1_[T8A]_[T9A]_[A10T]_T5.1 (ssRNA) RNA: UUUGAUUAAUAUGAUAUCGUUCUUUCUUGUACAAAAUUUCUUUCUCGAUAUCAUAUUAAUCUUU | 8.8 nM
12 | Ic_S2_P5E.1_K5.1_C5.1_H5.1_A5.1_[T5A]_[A7T]_F5.1_[T9C]_[A10G]_T5.1 (ssRNA) RNA: UUUGAUUAAUAUGAUAUCGUUCUUUCUUGUAAUUUCGUUCUUUCUCGAUAUCAUAUUAAUCUUU | 108 nM
13 | Ic_S2_P5E.1_K5.1_C5.1_H5.1_A5.1_[T6C]_[A7G]_F5.1_[T8C]_[T9C]_T5.1 (ssRNA) RNA: UUUGAUUAAUAUGAUAUCGUUCUUUCUUGUAUCGCCAUUCUUUCUCGAUAUCAUAUUAAUCUUU | 844 nM
14 | Ic_S2_P5E.1_K5.1_C5.1_H5.1_A5.1_[T5C]_[T6A]_[A7C]_F5.1_[T8A]_[A10G]_T5.1 (ssRNA) RNA: UUUGAUUAAUAUGAUAUCGUUCUUUCUUGUACACAUGUUCUUUCUCGAUAUCAUAUUAAUCUUU | 114 nM
15 | Ic_S2_P5E.1_K5.1_C5.1_H5.1_A5.1_[T5A]_[A7G]_F5.1_[T8C]_[A10T]_T5.1 (ssRNA) RNA: UUUGAUUAAUAUGAUAUCGUUCUUUCUUGUAAUGCUUUUCUUUCUCGAUAUCAUAUUAAUCUUU | 423 nM
16 | Ic_S2_P5E.1_K5.1_C5.1_H5.1_A5.1_[T6A]_F5.1_[T8A]_[T9A]_T5.1 (ssRNA) RNA: UUUGAUUAAUAUGAUAUCGUUCUUUCUUGUAUAAAAAUUCUUUCUCGAUAUCAUAUUAAUCUUU | 34.6 nM
17 | Ic_S2_P5E.1_K5.1_C5.1_H5.1_A5.1_[T5C]_[T6C]_[A7C]_F5.1_[A10T]_T5.1 (ssRNA) RNA: UUUGAUUAAUAUGAUAUCGUUCUUUCUUGUACCCUUUUUCUUUCUCGAUAUCAUAUUAAUCUUU | 8.63 nM
18 | Ic_S2_P5E.1_K5.1_C5.1_H5.1_A5.1_[T5C]_[T6A]_[A7T]_F5.1_[T9A]_[A10C]_T5.1 (ssRNA) RNA: UUUGAUUAAUAUGAUAUCGUUCUUUCUUGUACAUUACUUCUUUCUCGAUAUCAUAUUAAUCUUU | 0.894 nM
19 | Ic_S2_P5E.1_K5.1_C5.1_H5.1_A5.1_[T6A]_[A7T]_F5.1_[T9C]_[A10C]_T5.1 (ssRNA) RNA: UUUGAUUAAUAUGAUAUCGUUCUUUCUUGUAUAUUCCUUCUUUCUCGAUAUCAUAUUAAUCUUU | 2.26 nM
20 | Ic_S2_P5E.1_K5.1_C5.1_H5.1_A5.1_[T6C]_[A7G]_F5.1_[T8A]_[A10C]_T5.1 (ssRNA) RNA: UUUGAUUAAUAUGAUAUCGUUCUUUCUUGUAUCGAUCUUCUUUCUCGAUAUCAUAUUAAUCUUU | 1490 nM
21 | Ic_S2_P5E.1_K5.1_C5.1_H5.1_A5.1_[T6G]_[A7C]_F5.1_[T8C]_[T9C]_[A10T]_T5.1 (ssRNA) RNA: UUUGAUUAAUAUGAUAUCGUUCUUUCUUGUAUGCCCUUUCUUUCUCGAUAUCAUAUUAAUCUUU | 582 nM
22 | Ic_S2_P5E.1_K5.1_C5.1_H5.1_A5.1_[T6C]_[A7T]_F5.1_[T8A]_T5.1 (ssRNA) RNA: UUUGAUUAAUAUGAUAUCGUUCUUUCUUGUAUCUAUAUUCUUUCUCGAUAUCAUAUUAAUCUUU | 3.38 nM
23 | UCUCUUCGUAUAUUGUCUCUU (ssRNA) [Ib_S1_P4E.1_K4.1_C4.1_H4.1_[T1C]_A4.1_F4.1_[A9G]_T4.1] | 663 nM
